According to patent US20020035733A1 (AREXIS, published 2002):

B1: rat insulin degradation enzyme (IDE) variant A890V (valine for alanine at amino acid 890) (enzyme)
chain: MRNGLVWLLHPALPSTLHSILGARPPPVKRLCGFPKQIYSTMNNPAIQRIEDHIVKSPEDKREYRGLELANGIKVLLISDPTTDKSSAALDVHIGSLSDPPNIPGLSHFCEHMLFLGTKKYPKENEYSQFLSEHAGSSNAFTSGEHTNYYFDVSHEHLEGALDRFAQFFLCPLFDASCKDREVNAVDSEHEKNVMNDAWRLFQLEKATGNPKHPFSKFGTGNKYTLETRPNQEGIDVREELLKFHSTYYSSNLMAICVLGRESLDDLTNLVVKLFSEVENKNVPLPEFPEHPFQEEHLKQLYKIVPIKDIRNLYVTFPIPDLQQYYKSNPGHYLGHLIGHEGPGSLLSELKSKGWVNTLVGGQKEGARGFMFFIINVDLTEEGLLHVEDIILHMFQYIQKLRAEGPQEWVFQECKDLNAVAFRFKDKERPRGYTSKIAGKLHYYPLNGVLTAEYLLEEFRPDLIDMVLDKLRPENVRVAIVSKSFEGKTDRTEQWYGTQYKQEAIPEDVIQKWQNADLNGKFKLPTKNEFIPTNFEILALEKDATPYPALIKDTAMSKLWFKQDDKFFLPKACLNFEFFSPFAYVDPLHCNMAYLYLELLKDSLNEYAYAAELAGLSYDLQNTIYGMYLSVKGYNDKQPILLKKITEKMATFEIDKKRFEIIKEAYMRSLNNFRAEQPHQHAMYYLRLLMTEVAWTKDELKEALDDVTLPRLKAFIPQLLSRLHIEALLHGNITKQAALGVMQMVEDTLIEHAHTKPLLPSQLVRYREVQLPDRGWFVYQRRNEVHNNCGIEIYYQTDMQSTSENMFLELFCQIISEPCFNTLRTKEQLGYIVFSGPRRANGIQGLRFIIQSEKPPHYLESRVEAFLITMEKAIEDMTEEAFQKHIQALVIRRLDKPKKLSAECAKYWGEIISQQYNYDRDNIEVAYLKTLSKDDIIKFYKEMLAVDAPRRHKVSVHVLAREMDSCPVVGEFPSQNDINLSEAPPLPQPEVIHNMTEFKRGLPLFPLVKPHINFMAAKL
B2: rat insulin degradation enzyme (IDE) variant H18R (arginine for histidine at amino acid 18) (enzyme)
chain: MRNGLVWLLHPALPSTLRSILGARPPPVKRLCGFPKQIYSTMNNPAIQRIEDHIVKSPEDKREYRGLELANGIKVLLISDPTTDKSSAALDVHIGSLSDPPNIPGLSHFCEHMLFLGTKKYPKENEYSQFLSEHAGSSNAFTSGEHTNYYFDVSHEHLEGALDRFAQFFLCPLFDASCKDREVNAVDSEHEKNVMNDAWRLFQLEKATGNPKHPFSKFGTGNKYTLETRPNQEGIDVREELLKFHSTYYSSNLMAICVLGRESLDDLTNLVVKLFSEVENKNVPLPEFPEHPFQEEHLKQLYKIVPIKDIRNLYVTFPIPDLQQYYKSNPGHYLGHLIGHEGPGSLLSELKSKGWVNTLVGGQKEGARGFMFFIINVDLTEEGLLHVEDIILHMFQYIQKLRAEGPQEWVFQECKDLNAVAFRFKDKERPRGYTSKIAGKLHYYPLNGVLTAEYLLEEFRPDLIDMVLDKLRPENVRVAIVSKSFEGKTDRTEQWYGTQYKQEAIPEDVIQKWQNADLNGKFKLPTKNEFIPTNFEILALEKDATPYPALIKDTAMSKLWFKQDDKFFLPKACLNFEFFSPFAYVDPLHCNMAYLYLELLKDSLNEYAYAAELAGLSYDLQNTIYGMYLSVKGYNDKQPILLKKITEKMATFEIDKKRFEIIKEAYMRSLNNFRAEQPHQHAMYYLRLLMTEVAWTKDELKEALDDVTLPRLKAFIPQLLSRLHIEALLHGNITKQAALGVMQMVEDTLIEHAHTKPLLPSQLVRYREVQLPDRGWFVYQRRNEVHNNCGIEIYYQTDMQSTSENMFLELFCQIISEPCFNTLRTKEQLGYIVFSGPRRANGIQGLRFIIQSEKPPHYLESRVEAFLITMEKAIEDMTEEAFQKHIQALAIRRLDKPKKLSAECAKYWGEIISQQYNYDRDNIEVAYLKTLSKDDIIKFYKEMLAVDAPRRHKVSVHVLAREMDSCPVVGEFPSQNDINLSEAPPLPQPEVIHNMTEFKRGLPLFPLVKPHINFMAAKL
B3: rat insulin degradation enzyme (IDE), GK allele containing both H18R and A890V (enzyme)
chain: MRNGLVWLLHPALPSTLRSILGARPPPVKRLCGFPKQIYSTMNNPAIQRIEDHIVKSPEDKREYRGLELANGIKVLLISDPTTDKSSAALDVHIGSLSDPPNIPGLSHFCEHMLFLGTKKYPKENEYSQFLSEHAGSSNAFTSGEHTNYYFDVSHEHLEGALDRFAQFFLCPLFDASCKDREVNAVDSEHEKNVMNDAWRLFQLEKATGNPKHPFSKFGTGNKYTLETRPNQEGIDVREELLKFHSTYYSSNLMAICVLGRESLDDLTNLVVKLFSEVENKNVPLPEFPEHPFQEEHLKQLYKIVPIKDIRNLYVTFPIPDLQQYYKSNPGHYLGHLIGHEGPGSLLSELKSKGWVNTLVGGQKEGARGFMFFIINVDLTEEGLLHVEDIILHMFQYIQKLRAEGPQEWVFQECKDLNAVAFRFKDKERPRGYTSKIAGKLHYYPLNGVLTAEYLLEEFRPDLIDMVLDKLRPENVRVAIVSKSFEGKTDRTEQWYGTQYKQEAIPEDVIQKWQNADLNGKFKLPTKNEFIPTNFEILALEKDATPYPALIKDTAMSKLWFKQDDKFFLPKACLNFEFFSPFAYVDPLHCNMAYLYLELLKDSLNEYAYAAELAGLSYDLQNTIYGMYLSVKGYNDKQPILLKKITEKMATFEIDKKRFEIIKEAYMRSLNNFRAEQPHQHAMYYLRLLMTEVAWTKDELKEALDDVTLPRLKAFIPQLLSRLHIEALLHGNITKQAALGVMQMVEDTLIEHAHTKPLLPSQLVRYREVQLPDRGWFVYQRRNEVHNNCGIEIYYQTDMQSTSENMFLELFCQIISEPCFNTLRTKEQLGYIVFSGPRRANGIQGLRFIIQSEKPPHYLESRVEAFLITMEKAIEDMTEEAFQKHIQALVIRRLDKPKKLSAECAKYWGEIISQQYNYDRDNIEVAYLKTLSKDDIIKFYKEMLAVDAPRRHKVSVHVLAREMDSCPVVGEFPSQNDINLSEAPPLPQPEVIHNMTEFKRGLPLFPLVKPHINFMAAKL

Biological target: insulin (125I-insulin mixed with unlabeled insulin)
Assay: cell-based or functional assay

In order of rising “insulin degrading activity in intact COS-1 cells, percentage of wild type activity” value:
1. B3  69 % of wild type activity
2. B2  89 % of wild type activity
3. B1  95 % of wild type activity
